Experimental data published in US20120087858A1 (AbbVie / Abbott, published 2012).

T1: Recombinant Human SOST (human, UniProt Q9BQB4 24-213)
T1 construct: Biacore reagent from R&D Systems; the Wnt-1/luciferase assay used Human Sclerostin (Abbott PR-1261069); also called Sclerostin; Human Sclerostin
T1 sequence (looked up): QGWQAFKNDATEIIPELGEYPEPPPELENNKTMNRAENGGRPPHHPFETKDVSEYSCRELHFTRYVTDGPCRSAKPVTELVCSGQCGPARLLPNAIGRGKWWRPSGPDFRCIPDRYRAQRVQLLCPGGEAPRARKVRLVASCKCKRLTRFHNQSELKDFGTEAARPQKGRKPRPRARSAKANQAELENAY

B1: DVD1478 (bispecific antibody, human IgG1, kappa)
heavy: not shown
light: DIQMTQSPSSLSASVGDRVTITCRASQSISNNLNWYQQKPGKAPKLLIYYTSRFHSGVPSRFSGSGSGTDFTFTISSLQPEDIATYYCQQEHTLPYTFGQGTKLEIKRTVAAPSVFIFPPDIQMTQSPSSLSASVGDRVTITCRASQGIRIDLGWYQQKPGKAPKRLIYAASTLQSGVPSRFSGSGSGTEFIFTISSLQPEDFASYYCLQHKSYPLTFGGGTKVEIKRTVAAPSVFIFPPSDEQLKSGTASVVCLLNNFYPREAKVQWKVDNALQSGNSQESVTEQDSKDSTYSLSSTLTLSKADYEKHKVYACEVTHQGLSSPVTKSFNRGEC
notes: DVD-Ig; linker set 2; also called DVD1478H; DVD1478L
B2: DVD1483 (bispecific antibody, human IgG1, kappa)
heavy: not shown
light: EIVMTQSPATLSVSPGERATLSCRASQSVSSNLAWYQQKPGQAPRLLIHGASIRATGLPARFSGSGSGTEFTLTISSLQSEDFAVYYCQQYNYWWTFGQGTKVEIKRTVAAPSVFIFPPDVQMIQSPSSLSASLGDIVTMTCQASQGTSINLNWFQQKPGKAPKLLIYGSSNLEDGVPSRFSGSRYGTDFTLTISSLEDEDLATYFCLQHSYLPYTFGGGTKLEIKRTVAAPSVFIFPPSDEQLKSGTASVVCLLNNFYPREAKVQWKVDNALQSGNSQESVTEQDSKDSTYSLSSTLTLSKADYEKHKVYACEVTHQGLSSPVTKSFNRGEC
notes: DVD-Ig; linker set 2; also called DVD1483H; DVD1483L
B3: DVD1495 (bispecific antibody, human IgG1, kappa)
heavy: not shown
light: DIVMTQSHKFMSTTVGDRVSITCKASQAVSSAVAWYQQKPGQSPKLLIYWASTRHTGVPDRFTGSGSVTDFTLTIHNLQAEDLALYYCQQHYSTPFTFGSGTKLEIKRTVAAPDVQMIQSPSSLSASLGDIVTMTCQASQGTSINLNWFQQKPGKAPKLLIYGSSNLEDGVPSRFSGSRYGTDFTLTISSLEDEDLATYFCLQHSYLPYTFGGGTKLEIKRTVAAPSVFIFPPSDEQLKSGTASVVCLLNNFYPREAKVQWKVDNALQSGNSQESVTEQDSKDSTYSLSSTLTLSKADYEKHKVYACEVTHQGLSSPVTKSFNRGEC
notes: DVD-Ig; linker set 3; also called DVD1495H; DVD1495L
B4: DVD1502 (bispecific antibody, human IgG1, kappa)
heavy: not shown
light: DIQMTQSPSSLSASVGDRVTITCRASQSISNNLNWYQQKPGKAPKLLIYYTSRFHSGVPSRFSGSGSGTDFTFTISSLQPEDIATYYCQQEHTLPYTFGQGTKLEIKRTVAAPDIVMTQSHKFMSTTVGDRVSITCKASQAVSSAVAWYQQKPGQSPKLLIYWASTRHTGVPDRFTGSGSVTDFTLTIHNLQAEDLALYYCQQHYSTPFTFGSGTKLEIKRTVAAPSVFIFPPSDEQLKSGTASVVCLLNNFYPREAKVQWKVDNALQSGNSQESVTEQDSKDSTYSLSSTLTLSKADYEKHKVYACEVTHQGLSSPVTKSFNRGEC
notes: DVD-Ig; linker set 3; also called DVD1502H; DVD1502L
B5: DVD1517 (bispecific antibody, human IgG1, kappa)
heavy: not shown
light: DIQMTQSPSSLSASVGDRVTITCRASQGIRIDLGWYQQKPGKAPKRLIYAASTLQSGVPSRFSGSGSGTEFIFTISSLQPEDFASYYCLQHKSYPLTFGGGTKVEIKRTVAAPDVQMIQSPSSLSASLGDIVTMTCQASQGTSINLNWFQQKPGKAPKLLIYGSSNLEDGVPSRFSGSRYGTDFTLTISSLEDEDLATYFCLQHSYLPYTFGGGTKLEIKRTVAAPSVFIFPPSDEQLKSGTASVVCLLNNFYPREAKVQWKVDNALQSGNSQESVTEQDSKDSTYSLSSTLTLSKADYEKHKVYACEVTHQGLSSPVTKSFNRGEC
notes: DVD-Ig; linker set 3; also called DVD1517H; DVD1517L
B6: DVD1520 (bispecific antibody, human IgG1, kappa)
heavy: not shown
light: DIQMTQSPSSLSASVGDRVTITCRASQSISNNLNWYQQKPGKAPKLLIYYTSRFHSGVPSRFSGSGSGTDFTFTISSLQPEDIATYYCQQEHTLPYTFGQGTKLEIKRTVAAPDIQMTQSPSSLSASVGDRVTITCRASQGIRIDLGWYQQKPGKAPKRLIYAASTLQSGVPSRFSGSGSGTEFIFTISSLQPEDFASYYCLQHKSYPLTFGGGTKVEIKRTVAAPSVFIFPPSDEQLKSGTASVVCLLNNFYPREAKVQWKVDNALQSGNSQESVTEQDSKDSTYSLSSTLTLSKADYEKHKVYACEVTHQGLSSPVTKSFNRGEC
notes: DVD-Ig; linker set 3; also called DVD1520H; DVD1520L
B7: DVD1525 (bispecific antibody, human IgG1, kappa)
heavy: not shown
light: EIVMTQSPATLSVSPGERATLSCRASQSVSSNLAWYQQKPGQAPRLLIHGASIRATGLPARFSGSGSGTEFTLTISSLQSEDFAVYYCQQYNYWWTFGQGTKVEIKRTVAAPDVQMIQSPSSLSASLGDIVTMTCQASQGTSINLNWFQQKPGKAPKLLIYGSSNLEDGVPSRFSGSRYGTDFTLTISSLEDEDLATYFCLQHSYLPYTFGGGTKLEIKRTVAAPSVFIFPPSDEQLKSGTASVVCLLNNFYPREAKVQWKVDNALQSGNSQESVTEQDSKDSTYSLSSTLTLSKADYEKHKVYACEVTHQGLSSPVTKSFNRGEC
notes: DVD-Ig; linker set 3; also called DVD1525H; DVD1525L
B8: DVD1460 (bispecific antibody, human IgG1, kappa)
heavy: not shown
light: DIQMTQSPSSLSASVGDRVTITCRASQSISNNLNWYQQKPGKAPKLLIYYTSRFHSGVPSRFSGSGSGTDFTFTISSLQPEDIATYYCQQEHTLPYTFGQGTKLEIKRTVAAPSVFIFPPDIVMTQSHKFMSTTVGDRVSITCKASQAVSSAVAWYQQKPGQSPKLLIYWASTRHTGVPDRFTGSGSVTDFTLTIHNLQAEDLALYYCQQHYSTPFTFGSGTKLEIKRTVAAPSVFIFPPSDEQLKSGTASVVCLLNNFYPREAKVQWKVDNALQSGNSQESVTEQDSKDSTYSLSSTLTLSKADYEKHKVYACEVTHQGLSSPVTKSFNRGEC
notes: DVD-Ig; linker set 2; also called DVD1460H; DVD1460L
B9: DVD1454 (bispecific antibody, human IgG1, kappa)
heavy: not shown
light: DVQMIQSPSSLSASLGDIVTMTCQASQGTSINLNWFQQKPGKAPKLLIYGSSNLEDGVPSRFSGSRYGTDFTLTISSLEDEDLATYFCLQHSYLPYTFGGGTKLEIKRTVAAPSVFIFPPDIVMTQSHKFMSTTVGDRVSITCKASQAVSSAVAWYQQKPGQSPKLLIYWASTRHTGVPDRFTGSGSVTDFTLTIHNLQAEDLALYYCQQHYSTPFTFGSGTKLEIKRTVAAPSVFIFPPSDEQLKSGTASVVCLLNNFYPREAKVQWKVDNALQSGNSQESVTEQDSKDSTYSLSSTLTLSKADYEKHKVYACEVTHQGLSSPVTKSFNRGEC
notes: DVD-Ig; linker set 2; also called DVD1454H; DVD1454L
B10: AB020 (antibody, V domains shown)
VH: QVQLQESGPGLVKPSETLSLTCTVSGFSLIGYDLNWIRQPPGKGLEWIGIIWGDGTTDYNSAVKSRVTISKDTSKNQFSLKLSSVTAADTAVYYCARGGYWYATSYYFDYWGQGTLVTVSS
VL: DIQMTQSPSSLSASVGDRVTITCRASQSISNNLNWYQQKPGKAPKLLIYYTSRFHSGVPSRFSGSGSGTDFTFTISSLQPEDIATYYCQQEHTLPYTFGQGTKLEIKR
notes: Parent antibody; also called NGF parent antibody

Molecular target: T2, Recombinant Human TNF-α/TNFSF1A (human, UniProt P01375 77-233)
T2 construct: Bought reagent; The same protein name (huTNFα) is used in the L929 neutralization assay; also called huTNFα
T2 sequence (P01375 77-233 limits assumed): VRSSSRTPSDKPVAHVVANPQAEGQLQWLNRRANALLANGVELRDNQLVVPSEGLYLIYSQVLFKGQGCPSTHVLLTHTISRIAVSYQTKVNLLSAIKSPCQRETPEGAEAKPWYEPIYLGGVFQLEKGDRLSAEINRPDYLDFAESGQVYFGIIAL
Test: Biacore SPR
Protocol: (§1) The BIACORE assay (Biacore, Inc, Piscataway, N.J.) determines the affinity of antibodies or DVD-Ig with kinetic measurements of on-rate and off-rate constants. Binding of antibodies or DVD-Ig to a target antigen (for example, a purified recombinant target antigen) is determined by surface plasmon resonance-based measurements with a Biacore® 1000 or 3000 instrument (Biacore® AB, Uppsala, Sweden) using running HBS-EP (10 mM HEPES [pH 7.4], 150 mM NaCl, 3 mM EDTA, and 0.005% surfactant P20) at 25° C. All chemicals are obtained from Biacore® AB (Uppsala, Sweden) or otherwise from a different source as described in the text. For example, approximately 5000 RU of goat anti-mouse IgG, (Fcγ), fragment specific polyclonal antibody (Pierce Biotechnology Inc, Rockford, Ill.) diluted in 10 mM sodium acetate (pH 4.5) is directly immobilized across a CMS research grade biosensor chip using a standard amine coupling kit according to manufacturer's instructions and procedures at 25 μg/ml. Unreacted moieties on the biosensor surface are blocked with ethanolamine. Modified carboxymethyl dextran surface in flowcell 2 and 4 is used as a reaction surface. Unmodified carboxymethyl dextran without goat anti-mouse IgG in flow cell 1 and 3 is used as the reference surface. For kinetic analysis, rate equations derived from the 1:1 Langmuir binding model are fitted simultaneously to association and dissociation phases of all eight injections (using global fit analysis) with the use of Biaevaluation 4.0.1 software. Purified antibodies or DVD-Ig are diluted in HEPES-buffered saline for capture across goat anti-mouse IgG specific reaction surfaces. Antibodies or DVD-Ig to be captured as a ligand (25 μg/ml) are injected over reaction matrices at a flow rate of 5 μl/min. The association and dissociation rate constants, kₒₙ (M⁻¹s⁻) and koff(s⁻¹) are determined under a continuous flow rate of 25 μl/min. Rate constants are derived by making kinetic binding measurements at different antigen concentrations ranging from 10-200 nM. The equilibrium dissociation constant (M) of the reaction between antibodies or DVD-Igs and the target antigen is then calculated from the kinetic rate constants by the following formula: KD=koff/kₒₙ. Binding is recorded as a function of time and kinetic rate constants are calculated.

| Binder | Kd [pM] | koff [s⁻¹] | kon [M⁻¹ s⁻¹] |
| --- | --- | --- | --- |
| B1 | 100 | 1.5e-05 | 150000 |
| B2 | 12 | 3.3e-05 | 2.8e+06 |
| B3 | 21 | 5.4e-05 | 2.5e+06 |
| B4 | 300 | 5.5e-05 | 180000 |
| B5 | 18 | 4.7e-05 | 2.6e+06 |
| B6 | 3.8 | 4.4e-06 | 1.1e+06 |
| B7 | 15 | 3e-05 | 2e+06 |
| B8 | 260 | 3.6e-05 | 140000 |
| B9 | 210 | 4.9e-05 | 230000 |

Molecular target: T1, Recombinant Human SOST
Test: Biacore SPR
Protocol: as §1

| Binder | Kd [pM] | koff [s⁻¹] | kon [M⁻¹ s⁻¹] |
| --- | --- | --- | --- |
| B2 | 780 | 0.00083 | 1.1e+06 |
| B3 | 22000 | 0.00095 | 44000 |
| B5 | 5500 | 0.0005 | 89000 |
| B7 | 9800 | 0.00089 | 91000 |
| B9 | 84 | 0.00086 | 1e+07 |

Molecular target: T3, Recombinant Human β-NGF (human, UniProt P01138 122-241)
T3 construct: Bought reagent; also called huNGF
T3 sequence (P01138 122-241 limits assumed): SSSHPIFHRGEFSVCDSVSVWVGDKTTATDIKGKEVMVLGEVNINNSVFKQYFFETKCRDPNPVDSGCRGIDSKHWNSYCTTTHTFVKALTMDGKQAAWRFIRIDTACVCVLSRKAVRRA
Test: Biacore SPR
Protocol: as §1

| Binder | Kd [pM] | koff [s⁻¹] | kon [M⁻¹ s⁻¹] |
| --- | --- | --- | --- |
| B1 | 2.5 | 6e-06 | 2.4e+06 |
| B4 | < 0.4 | < 1e-06 | 2.5e+06 |
| B6 | 3.4 | 9.3e-06 | 2.7e+06 |
| B10 | 6.73 | 4.08e-06 | 606000 |
| B8 | 0.85 | 2e-06 | 2.3e+06 |

Molecular target: T3, Recombinant Human β-NGF
Test: cell-based or functional assay

| Binder | NGF Inhibition Assay EC50 (TF-1 cell proliferation) [pM] |
| --- | --- |
| B1 | 19 |
| B4 | 28 |
| B6 | 25 |
| B10 | 3 |
| B8 | 1700 |

Molecular target: T2, Recombinant Human TNF-α/TNFSF1A
Test: cell-based or functional assay

| Binder | TNFα Neutralization Assay EC50 (L929 cells) [pM] |
| --- | --- |
| B1 | 329 |
| B2 | 12 |
| B3 | 3.8 |
| B4 | 460 |
| B5 | 1.2 |
| B6 | 7210 |
| B7 | 2.9 |
| B9 | 951 |
